Measured values from paper PMC9579051.

Biological target: PSI–LHCI as found in the chloroplast PSI–LHCI dimer (one monomer unit, without PsaH, PsaO and Lhca2) (Chlamydomonas reinhardtii) (UniProt P12154)
Assay: cryo-EM structure; heavier green band of the sucrose gradient of affinity-purified PSI cross-linked with activated Pc; 1 mg chlorophyll/ml, vitrified at 4 °C; dimer refined with C2 symmetry, monomer with C1, focused classification on the Pc region

“PSI–LHCI as found in the chloroplast PSI–LHCI dimer (one monomer unit, without PsaH, PsaO and Lhca2) (from UniProt P12154 1-751; P09144 1-735; Q39615 36-196; P12352 25-97; P12356 63-227; P14224 31-126; P14225 27-113) (complex)” was tested, and the stoichiometry N was 2.
